Laboratory results published in patent publication US20260242735A1 (UNIVERSIT T BASEL, published 2026).

Tests used:
Assay in all cases: alanine scan, flow cytometry;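 note: HEK293-T cells transiently expressing single-residue alanine mutants of CD33 (alanine swapped to serine), antibody binding read by fluorescence in duplicate, background-subtracted, expressed relative to wild-type CD33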
human CD33 E81A = human CD33 E81A (human, UniProt P20138 18-364)
Description: (§1) An alanine scan on human CD33 was performed to the determine the residues on CD33 that are involved in binding to the antibodies investigated. […] Briefly, a mutation library of CD33 was created by high-throughput, site-directed mutagenesis. Each residue was individually mutated to alanine, with alanine codons mutated to serine. The mutant library was arrayed in 384-well microplates and transiently transfected into HEK293-T. Following transfection, cells were incubated with the indicated antibodies (IgG or Fab) at concentrations pre-determined using an independent immunofluorescence titration curve on wild type CD33. […] Binding of each antibody to each mutant clone was determined in duplicates. For each point, background fluorescence was subtracted from the raw data, which were then normalized to antibody reactivity with wild type CD33.
(§2) Critical residues for antibody binding (outlined in dark grey) were residues whose mutations led to a binding of the test Abs of less than 20%. Additional secondary residues (outlined in light grey) were identified that led to a binding of the test Abs of between 20 and 40% as compared to the wild type CD33.

human CD33 K77A = human CD33 K77A (human, UniProt P20138 18-364)
Description: as §1, §2

human CD33 V29A = human CD33 V29A (human, UniProt P20138 18-364)
Description: as §1, §2

human CD33 I66A = human CD33 I66A (human, UniProt P20138 18-364)
Description: as §1, §2

human CD33 G88A = human CD33 G88A (human, UniProt P20138 18-364)
Description: as §1, §2

human CD33 E85A = human CD33 E85A (human, UniProt P20138 18-364)
Description: as §1, §2

human CD33 L38A = human CD33 L38A (human, UniProt P20138 18-364)
Description: as §1, §2

human CD33 L78A = human CD33 L78A (human, UniProt P20138 18-364)
Description: as §1, §2

human CD33 G34A = human CD33 G34A (human, UniProt P20138 18-364)
Description: as §1, §2

human CD33 T42A = human CD33 T42A (human, UniProt P20138 18-364)
Description: as §1, §2

human CD33 V39A = human CD33 V39A (human, UniProt P20138 18-364)
Description: as §1, §2

human CD33 F61A = human CD33 F61A (human, UniProt P20138 18-364)
Description: as §1, §2

human CD33 R89A = human CD33 R89A (human, UniProt P20138 18-364)
Description: as §1, §2

human CD33 I47A = human CD33 I47A (human, UniProt P20138 18-364)
Description: as §1, §2

human CD33 R62A = human CD33 R62A (human, UniProt P20138 18-364)
Description: as §1, §2

human CD33 N53A = human CD33 N53A (human, UniProt P20138 18-364)
Description: as §1, §2

human CD33 S68A = human CD33 S68A (human, UniProt P20138 18-364)
Description: as §1, §2

human CD33 V73A = human CD33 V73A (human, UniProt P20138 18-364)
Description: as §1, §2

human CD33 K52A = human CD33 K52A (human, UniProt P20138 18-364)
Description: as §1, §2

human CD33 T75A = human CD33 T75A (human, UniProt P20138 18-364)
Description: as §1, §2

human CD33 T30A = human CD33 T30A (human, UniProt P20138 18-364)
Description: as §1, §2

human CD33 D18A = human CD33 D18A (human, UniProt P20138 19-364)
Description: as §1, §2

human CD33 I67A = human CD33 I67A (human, UniProt P20138 18-364)
Description: as §1, §2

human CD33 L35A = human CD33 L35A (human, UniProt P20138 18-364)
Description: as §1, §2

human CD33 V56A = human CD33 V56A (human, UniProt P20138 18-364)
Description: as §1, §2

human CD33 N20A = human CD33 N20A (human, UniProt P20138 18-364)
Description: as §1, §2

human CD33 F43A = human CD33 F43A (human, UniProt P20138 18-364)
Description: as §1, §2

human CD33 E84A = human CD33 E84A (human, UniProt P20138 18-364)
Description: as §1, §2

human CD33 F90A = human CD33 F90A (human, UniProt P20138 18-364)
Description: as §1, §2

human CD33 V31A = human CD33 V31A (human, UniProt P20138 18-364)
Description: as §1, §2

human CD33 V82A = human CD33 V82A (human, UniProt P20138 18-364)
Description: as §1, §2

human CD33 P46A = human CD33 P46A (human, UniProt P20138 18-364)
Description: as §1, §2

human CD33 G64A = human CD33 G64A (human, UniProt P20138 18-364)
Description: as §1, §2

human CD33 V37A = human CD33 V37A (human, UniProt P20138 18-364)
Description: as §1, §2

human CD33 T86A = human CD33 T86A (human, UniProt P20138 18-364)
Description: as §1, §2

human CD33 Y49A = human CD33 Y49A (human, UniProt P20138 18-364)
Description: as §1, §2

human CD33 V25A = human CD33 V25A (human, UniProt P20138 18-364)
Description: as §1, §2

human CD33 R69A = human CD33 R69A (human, UniProt P20138 18-364)
Description: as §1, §2

human CD33 A74S = human CD33 A74S (human, UniProt P20138 18-364)
Description: as §1, §2

human CD33 Q80A = human CD33 Q80A (human, UniProt P20138 18-364)
Description: as §1, §2

human CD33 Q24A = human CD33 Q24A (human, UniProt P20138 18-364)
Description: as §1, §2

human CD33 F44A = human CD33 F44A (human, UniProt P20138 18-364)
Description: as §1, §2

Chain of human CD33 V31A (P20138 18-364 V31A limits assumed): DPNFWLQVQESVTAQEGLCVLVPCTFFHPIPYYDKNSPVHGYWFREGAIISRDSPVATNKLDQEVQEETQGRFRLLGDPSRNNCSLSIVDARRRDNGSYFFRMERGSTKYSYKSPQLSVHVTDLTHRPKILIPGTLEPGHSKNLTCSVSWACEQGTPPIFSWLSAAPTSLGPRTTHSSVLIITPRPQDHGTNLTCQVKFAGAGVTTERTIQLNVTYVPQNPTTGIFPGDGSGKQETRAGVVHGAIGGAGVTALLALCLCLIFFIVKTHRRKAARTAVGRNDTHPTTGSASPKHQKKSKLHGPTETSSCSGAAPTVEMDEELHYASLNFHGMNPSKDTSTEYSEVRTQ
Chain of human CD33 N20A (P20138 18-364 N20A limits assumed): as the sequence (P20138 18-364 V31A limits assumed) above, with N3A, A14V counted along it
Chain of human CD33 I67A (P20138 18-364 I67A limits assumed): as the sequence (P20138 18-364 V31A limits assumed) above, with A14V, I50A counted along it
Chain of human CD33 K52A (P20138 18-364 K52A limits assumed): as the sequence (P20138 18-364 V31A limits assumed) above, with A14V, K35A counted along it
Chain of human CD33 E84A (P20138 18-364 E84A limits assumed): as the sequence (P20138 18-364 V31A limits assumed) above, with A14V, E67A counted along it
Chain of human CD33 T30A (P20138 18-364 T30A limits assumed): as the sequence (P20138 18-364 V31A limits assumed) above, with T13A, A14V counted along it
Chain of human CD33 L35A (P20138 18-364 L35A limits assumed): as the sequence (P20138 18-364 V31A limits assumed) above, with A14V, L18A counted along it
Chain of human CD33 V82A (P20138 18-364 V82A limits assumed): as the sequence (P20138 18-364 V31A limits assumed) above, with A14V, V65A counted along it
Chain of human CD33 V37A (P20138 18-364 V37A limits assumed): as the sequence (P20138 18-364 V31A limits assumed) above, with A14V, V20A counted along it
Chain of human CD33 Q80A (P20138 18-364 Q80A limits assumed): as the sequence (P20138 18-364 V31A limits assumed) above, with A14V, Q63A counted along it
Chain of human CD33 Y49A (P20138 18-364 Y49A limits assumed): as the sequence (P20138 18-364 V31A limits assumed) above, with A14V, Y32A counted along it
Chain of human CD33 K77A (P20138 18-364 K77A limits assumed): as the sequence (P20138 18-364 V31A limits assumed) above, with A14V, K60A counted along it
Chain of human CD33 V56A (P20138 18-364 V56A limits assumed): as the sequence (P20138 18-364 V31A limits assumed) above, with A14V, V39A counted along it
Chain of human CD33 V29A (P20138 18-364 V29A limits assumed): as the sequence (P20138 18-364 V31A limits assumed) above, with V12A, A14V counted along it

B1: Refmab #3 (antibody, V domains shown)
VH: QVQLVQSGAEVKKPGSSVKVSCKASGYTFTDYNMHWVRQAPGQGLEWIGYIYPYNGGTGYNQKFKSKATITADESTNTAYMELSSLRSEDTAVYYCARGRPAMDYWGQGTLVTVSS
VL: DIQMTQSPSSLSASVGDRVTITCRASESVDNYGISFMNWFQQKPGKAPKLLIYAASNQGSGVPSRFSGSGSGTDFTLTISSLQPDDFATYYCQQSKEVPWTFGQGTKVEIK
notes: Full-length format is human IgG1 Fc silent (PG-LALA); The alanine scan used IgG or Fab
Human CD33 E81A
  Mean % WT Binding: 114 % WT
Human CD33 K77A
  Mean % WT Binding: 192 % WT
Human CD33 V29A
  Mean % WT Binding: 115 % WT
Human CD33 I66A
  Mean % WT Binding: 126 % WT
Human CD33 G88A
  Mean % WT Binding: 88.3 % WT
Human CD33 E85A
  Mean % WT Binding: 112 % WT
Human CD33 L38A
  Mean % WT Binding: 192 % WT
Human CD33 L78A
  Mean % WT Binding: 113 % WT
Human CD33 G34A
  Mean % WT Binding: 99.4 % WT
Human CD33 T42A
  Mean % WT Binding: 198 % WT
Human CD33 V39A
  Mean % WT Binding: 122 % WT
Human CD33 F61A
  Mean % WT Binding: 304 % WT
Human CD33 R89A
  Mean % WT Binding: 126 % WT
Human CD33 I47A
  Mean % WT Binding: 165 % WT
Human CD33 R62A
  Mean % WT Binding: 91.8 % WT
Human CD33 N53A
  Mean % WT Binding: 116 % WT
Human CD33 S68A
  Mean % WT Binding: 115 % WT
Human CD33 V73A
  Mean % WT Binding: 149 % WT
Human CD33 K52A
  Mean % WT Binding: 80.3 % WT
Human CD33 T75A
  Mean % WT Binding: 118 % WT
Human CD33 T30A
  Mean % WT Binding: 104 % WT
Human CD33 D18A
  Mean % WT Binding: 37.8 % WT
Human CD33 I67A
  Mean % WT Binding: 142 % WT
Human CD33 L35A
  Mean % WT Binding: 102 % WT
Human CD33 V56A
  Mean % WT Binding: 42.6 % WT
Human CD33 N20A
  Mean % WT Binding: 34.9 % WT
Human CD33 F43A
  Mean % WT Binding: 49.3 % WT
Human CD33 E84A
  Mean % WT Binding: 137 % WT
Human CD33 F90A
  Mean % WT Binding: 138 % WT
Human CD33 V31A
  Mean % WT Binding: 127 % WT
Human CD33 V82A
  Mean % WT Binding: 141 % WT
Human CD33 P46A
  Mean % WT Binding: 8.8 % WT
Human CD33 G64A
  Mean % WT Binding: 96.6 % WT
Human CD33 V37A
  Mean % WT Binding: 150 % WT
Human CD33 T86A
  Mean % WT Binding: 112 % WT
Human CD33 Y49A
  Mean % WT Binding: 86.6 % WT
Human CD33 V25A
  Mean % WT Binding: 109 % WT
Human CD33 R69A
  Mean % WT Binding: 188 % WT
Human CD33 A74S
  Mean % WT Binding: 115 % WT
Human CD33 Q80A
  Mean % WT Binding: 123 % WT
Human CD33 Q24A
  Mean % WT Binding: 101 % WT

B2: Refmab #4 (antibody, V domains shown)
VH: QVQLVQSGAEVKKPGESVKVSCKASGYTFTNYGMNWVKQAPGQGLEWMGWINTYTGEPTYADKFQGRVTMTTDTSTSTAYMEIRNLGGDDTAVYYCARWSWSDGYYVYFDYWGQGTSVTVSS
VL: DIVMTQSPDSLTVSLGERTTINCKSSQSVLDSSTNKNSLAWYQQKPGQPPKLLLSWASTRESGIPDRFSGSGSGTDFTLTIDSPQPEDSATYYCQQSAHFPITFGQGTRLEIK
notes: as for B1
Human CD33 E81A
  Mean % WT Binding: 90.6 % WT
Human CD33 K77A
  Mean % WT Binding: 123 % WT
Human CD33 V29A
  Mean % WT Binding: 84.4 % WT
Human CD33 I66A
  Mean % WT Binding: 108 % WT
Human CD33 G88A
  Mean % WT Binding: 97.7 % WT
Human CD33 E85A
  Mean % WT Binding: 110 % WT
Human CD33 L38A
  Mean % WT Binding: 96.8 % WT
Human CD33 F44A
  Mean % WT Binding: 152 % WT
Human CD33 L78A
  Mean % WT Binding: 111 % WT
Human CD33 G34A
  Mean % WT Binding: 93.4 % WT
Human CD33 T42A
  Mean % WT Binding: 67.4 % WT
Human CD33 V39A
  Mean % WT Binding: 58.4 % WT
Human CD33 F61A
  Mean % WT Binding: 131 % WT
Human CD33 R89A
  Mean % WT Binding: 71.6 % WT
Human CD33 I47A
  Mean % WT Binding: 144 % WT
Human CD33 R62A
  Mean % WT Binding: 104 % WT
Human CD33 N53A
  Mean % WT Binding: 69 % WT
Human CD33 S68A
  Mean % WT Binding: 90.4 % WT
Human CD33 V73A
  Mean % WT Binding: 67.2 % WT
Human CD33 K52A
  Mean % WT Binding: 9.8 % WT
Human CD33 T75A
  Mean % WT Binding: 93.8 % WT
Human CD33 T30A
  Mean % WT Binding: 104 % WT
Human CD33 D18A
  Mean % WT Binding: 110 % WT
Human CD33 I67A
  Mean % WT Binding: 67.2 % WT
Human CD33 L35A
  Mean % WT Binding: 94.5 % WT
Human CD33 V56A
  Mean % WT Binding: 56.8 % WT
Human CD33 N20A
  Mean % WT Binding: 158 % WT
Human CD33 F43A
  Mean % WT Binding: 7.8 % WT
Human CD33 E84A
  Mean % WT Binding: 120 % WT
Human CD33 F90A
  Mean % WT Binding: 82.3 % WT
Human CD33 V31A
  Mean % WT Binding: 97.9 % WT
Human CD33 V82A
  Mean % WT Binding: 144 % WT
Human CD33 P46A
  Mean % WT Binding: 135 % WT
Human CD33 G64A
  Mean % WT Binding: 93.9 % WT
Human CD33 V37A
  Mean % WT Binding: 78.7 % WT
Human CD33 T86A
  Mean % WT Binding: 103 % WT
Human CD33 Y49A
  Mean % WT Binding: 3.1 % WT
Human CD33 V25A
  Mean % WT Binding: 49.1 % WT
Human CD33 R69A
  Mean % WT Binding: 118 % WT
Human CD33 A74S
  Mean % WT Binding: 72.5 % WT
Human CD33 Q80A
  Mean % WT Binding: 124 % WT
Human CD33 Q24A
  Mean % WT Binding: 68.3 % WT

B3: Refmab #1 (antibody, V domains shown)
VH: EVQLVQSGAEVKKPGSSVKVSCKASGYTITDSNIHWVRQAPGQSLEWIGYIYPYNGGTDYNQKFKNRATLTVDNPTNTAYMELSSLRSEDTAFYYCVNGNPWLAYWGQGTLVTVSS
VL: DIQLTQSPSTLSASVGDRVTITCRASESLDNYGIRFLTWFQQKPGKAPKLLMYAASNQGSGVPSRFSGSGSGTEFTLTISSLQPDDFATYYCQQTKEVPWSFGQGTKVEVK
notes: Full-length format is human IgG1 (Absolute Antibody Ab00283-10.0); The alanine scan used IgG or Fab; also called hP67.6
Human CD33 E81A
  Mean % WT Binding: 83 % WT
Human CD33 K77A
  Mean % WT Binding: 95.6 % WT
Human CD33 V29A
  Mean % WT Binding: 102 % WT
Human CD33 I66A
  Mean % WT Binding: 96.6 % WT
Human CD33 G88A
  Mean % WT Binding: 96.1 % WT
Human CD33 E85A
  Mean % WT Binding: 88.9 % WT
Human CD33 L38A
  Mean % WT Binding: 94.8 % WT
Human CD33 F44A
  Mean % WT Binding: 85.1 % WT
Human CD33 L78A
  Mean % WT Binding: 87.4 % WT
Human CD33 G34A
  Mean % WT Binding: 99.5 % WT
Human CD33 T42A
  Mean % WT Binding: 105 % WT
Human CD33 V39A
  Mean % WT Binding: 80 % WT
Human CD33 F61A
  Mean % WT Binding: 95 % WT
Human CD33 R89A
  Mean % WT Binding: 77.6 % WT
Human CD33 I47A
  Mean % WT Binding: 84.2 % WT
Human CD33 R62A
  Mean % WT Binding: 121 % WT
Human CD33 N53A
  Mean % WT Binding: 94.7 % WT
Human CD33 S68A
  Mean % WT Binding: 91.3 % WT
Human CD33 V73A
  Mean % WT Binding: 73.6 % WT
Human CD33 K52A
  Mean % WT Binding: 84.2 % WT
Human CD33 T75A
  Mean % WT Binding: 101 % WT
Human CD33 T30A
  Mean % WT Binding: 89.3 % WT
Human CD33 D18A
  Mean % WT Binding: 78.6 % WT
Human CD33 I67A
  Mean % WT Binding: 98.1 % WT
Human CD33 L35A
  Mean % WT Binding: 89.1 % WT
Human CD33 V56A
  Mean % WT Binding: 94.3 % WT
Human CD33 N20A
  Mean % WT Binding: 1.2 % WT
Human CD33 F43A
  Mean % WT Binding: 66.3 % WT
Human CD33 E84A
  Mean % WT Binding: 92.2 % WT
Human CD33 F90A
  Mean % WT Binding: 73.9 % WT
Human CD33 V31A
  Mean % WT Binding: 87 % WT
Human CD33 V82A
  Mean % WT Binding: 99.6 % WT
Human CD33 P46A
  Mean % WT Binding: 64.8 % WT
Human CD33 G64A
  Mean % WT Binding: 90.6 % WT
Human CD33 V37A
  Mean % WT Binding: 78.7 % WT
Human CD33 T86A
  Mean % WT Binding: 79.1 % WT
Human CD33 Y49A
  Mean % WT Binding: 106 % WT
Human CD33 V25A
  Mean % WT Binding: 90.7 % WT
Human CD33 R69A
  Mean % WT Binding: 94.2 % WT
Human CD33 A74S
  Mean % WT Binding: 83.7 % WT
Human CD33 Q80A
  Mean % WT Binding: 91.6 % WT
Human CD33 Q24A
  Mean % WT Binding: 74.1 % WT
